For this test, the target named is T1, TSH receptor (TSHR) on human ML-1 cells (human (endogenous in ML-1), UniProt P16473 21-764).
T1 construct: thyrotropin receptor (TSHR) expressed on the TSHR-positive human thyroid cancer cell line ML-1; also called TSH receptors; source: endogenous, on human ML-1 cells
Kind of test: radioligand binding; real-time kinetic binding assay with LigandTracer; 10^6 ML-1 cells seeded in a tilted Petri dish; 2 mL of 30 nM radiolabeled ligand in culture medium for 1 h, then medium without ligand to follow release; Kd from binding/release curve (GraphPad Prism). The conditions noted are these: one partner purified.

T1 sequence (P16473 21-764): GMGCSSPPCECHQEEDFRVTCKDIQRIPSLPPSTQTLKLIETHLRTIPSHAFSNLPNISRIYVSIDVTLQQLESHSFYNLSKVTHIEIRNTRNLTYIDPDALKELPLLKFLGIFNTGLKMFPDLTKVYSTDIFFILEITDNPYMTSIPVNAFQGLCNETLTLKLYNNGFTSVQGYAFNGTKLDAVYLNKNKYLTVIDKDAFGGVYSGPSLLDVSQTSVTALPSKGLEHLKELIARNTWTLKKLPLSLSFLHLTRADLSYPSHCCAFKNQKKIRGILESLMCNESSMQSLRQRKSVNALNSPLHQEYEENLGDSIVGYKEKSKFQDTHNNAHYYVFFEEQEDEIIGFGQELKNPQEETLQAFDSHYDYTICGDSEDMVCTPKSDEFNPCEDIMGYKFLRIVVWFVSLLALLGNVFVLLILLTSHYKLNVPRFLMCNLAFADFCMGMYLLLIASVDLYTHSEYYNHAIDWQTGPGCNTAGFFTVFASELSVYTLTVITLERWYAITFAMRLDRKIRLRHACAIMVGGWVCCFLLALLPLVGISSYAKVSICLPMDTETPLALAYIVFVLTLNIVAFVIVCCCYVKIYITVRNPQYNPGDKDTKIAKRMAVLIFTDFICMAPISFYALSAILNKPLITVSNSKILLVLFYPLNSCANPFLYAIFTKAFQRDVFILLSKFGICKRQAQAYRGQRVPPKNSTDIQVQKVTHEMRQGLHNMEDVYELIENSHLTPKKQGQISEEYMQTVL

B1: 99mTc-Thyrogen, radiolabeled recombinant human TSH (Thyrogen) (ligand)
chain 1: not shown
chain 2: FCIPTEYTMHIERRECAYCLTINTTICAGYCMTRDINGKLFLPKYALSQDVCTYRDFIYRTVEIPGCPLHVAPYFSYPVALSCKCGKCNTDYSDCIHEAIKTNYCTKPQKSY
modifications: technetium-99m label (sites and chain not stated) | technetium-99m label (sites and chain not stated)
notes: glycoprotein hormones alpha chain (alpha subunit of TSH), human; recombinant human TSH (Thyrogen), so named in the abstract; thyrotropin (TSH) beta subunit, human; Thyrogen is a drug product; also called rhTSH; radiolabeled human recombinant TSH
Consider B1, for which the dissociation constant (Kd) came out at 8.4 nM.
